The values that follow are results of earlier work, collected in article PMC7295915.

In general, Kd refers to a measure of binding affinity in units of concentration.

Data set [1] concerns the target CD48 (Homo sapiens) (UniProt P09326).
In data set [2] the target is CD80 (Homo sapiens) (UniProt P33681).
The target in data set [3] is CD40L (Homo sapiens) (UniProt P29965).
For data set [4], the target named is ICAM-1 (Homo sapiens) (UniProt P05362).
ICAM-1 (Homo sapiens), sequence (P05362 28-480): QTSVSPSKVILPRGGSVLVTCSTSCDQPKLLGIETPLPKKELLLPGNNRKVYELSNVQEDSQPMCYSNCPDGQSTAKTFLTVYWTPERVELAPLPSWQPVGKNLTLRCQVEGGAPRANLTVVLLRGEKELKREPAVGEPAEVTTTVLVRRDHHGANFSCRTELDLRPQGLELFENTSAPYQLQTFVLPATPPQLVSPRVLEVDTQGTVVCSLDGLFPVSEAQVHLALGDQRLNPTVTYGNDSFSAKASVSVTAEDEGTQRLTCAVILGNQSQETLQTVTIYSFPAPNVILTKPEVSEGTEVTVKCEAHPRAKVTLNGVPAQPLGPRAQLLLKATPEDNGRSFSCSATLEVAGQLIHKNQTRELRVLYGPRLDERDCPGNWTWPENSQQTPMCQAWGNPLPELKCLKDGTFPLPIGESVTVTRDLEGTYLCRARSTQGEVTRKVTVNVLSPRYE

CD40, sequence (P25942 21-277): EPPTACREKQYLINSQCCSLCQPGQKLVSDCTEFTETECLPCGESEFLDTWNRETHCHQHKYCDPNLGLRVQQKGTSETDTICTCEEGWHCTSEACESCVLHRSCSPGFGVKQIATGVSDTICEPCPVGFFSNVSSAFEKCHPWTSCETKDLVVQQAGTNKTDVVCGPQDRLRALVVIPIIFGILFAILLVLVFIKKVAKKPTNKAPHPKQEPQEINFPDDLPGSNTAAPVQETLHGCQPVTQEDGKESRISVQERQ
CD48 (Homo sapiens), sequence (P09326 27-220): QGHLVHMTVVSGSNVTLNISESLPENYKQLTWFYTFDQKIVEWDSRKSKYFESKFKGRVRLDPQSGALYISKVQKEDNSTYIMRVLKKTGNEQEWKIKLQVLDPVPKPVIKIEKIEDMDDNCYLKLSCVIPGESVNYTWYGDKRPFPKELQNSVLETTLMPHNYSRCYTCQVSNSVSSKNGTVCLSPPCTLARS
CD2, sequence (P06729 25-209): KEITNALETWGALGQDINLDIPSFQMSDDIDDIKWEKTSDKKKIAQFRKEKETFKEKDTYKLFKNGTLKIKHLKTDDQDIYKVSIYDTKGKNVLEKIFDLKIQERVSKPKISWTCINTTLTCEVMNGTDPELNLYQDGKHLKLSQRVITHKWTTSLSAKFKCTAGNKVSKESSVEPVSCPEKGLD
CD80 (Homo sapiens), sequence (P33681 35-242): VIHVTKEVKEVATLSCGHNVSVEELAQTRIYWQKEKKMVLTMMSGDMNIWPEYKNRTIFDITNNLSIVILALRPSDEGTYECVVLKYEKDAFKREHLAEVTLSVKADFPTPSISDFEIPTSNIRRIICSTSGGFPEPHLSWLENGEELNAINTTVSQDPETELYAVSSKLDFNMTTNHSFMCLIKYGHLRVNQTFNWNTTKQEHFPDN
CD40L (Homo sapiens), sequence (P29965 113-261): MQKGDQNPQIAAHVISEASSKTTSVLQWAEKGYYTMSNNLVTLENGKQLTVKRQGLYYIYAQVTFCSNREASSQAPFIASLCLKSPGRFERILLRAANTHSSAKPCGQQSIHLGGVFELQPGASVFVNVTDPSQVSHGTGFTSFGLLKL
LFA-1, sequence (P20701 26-1090): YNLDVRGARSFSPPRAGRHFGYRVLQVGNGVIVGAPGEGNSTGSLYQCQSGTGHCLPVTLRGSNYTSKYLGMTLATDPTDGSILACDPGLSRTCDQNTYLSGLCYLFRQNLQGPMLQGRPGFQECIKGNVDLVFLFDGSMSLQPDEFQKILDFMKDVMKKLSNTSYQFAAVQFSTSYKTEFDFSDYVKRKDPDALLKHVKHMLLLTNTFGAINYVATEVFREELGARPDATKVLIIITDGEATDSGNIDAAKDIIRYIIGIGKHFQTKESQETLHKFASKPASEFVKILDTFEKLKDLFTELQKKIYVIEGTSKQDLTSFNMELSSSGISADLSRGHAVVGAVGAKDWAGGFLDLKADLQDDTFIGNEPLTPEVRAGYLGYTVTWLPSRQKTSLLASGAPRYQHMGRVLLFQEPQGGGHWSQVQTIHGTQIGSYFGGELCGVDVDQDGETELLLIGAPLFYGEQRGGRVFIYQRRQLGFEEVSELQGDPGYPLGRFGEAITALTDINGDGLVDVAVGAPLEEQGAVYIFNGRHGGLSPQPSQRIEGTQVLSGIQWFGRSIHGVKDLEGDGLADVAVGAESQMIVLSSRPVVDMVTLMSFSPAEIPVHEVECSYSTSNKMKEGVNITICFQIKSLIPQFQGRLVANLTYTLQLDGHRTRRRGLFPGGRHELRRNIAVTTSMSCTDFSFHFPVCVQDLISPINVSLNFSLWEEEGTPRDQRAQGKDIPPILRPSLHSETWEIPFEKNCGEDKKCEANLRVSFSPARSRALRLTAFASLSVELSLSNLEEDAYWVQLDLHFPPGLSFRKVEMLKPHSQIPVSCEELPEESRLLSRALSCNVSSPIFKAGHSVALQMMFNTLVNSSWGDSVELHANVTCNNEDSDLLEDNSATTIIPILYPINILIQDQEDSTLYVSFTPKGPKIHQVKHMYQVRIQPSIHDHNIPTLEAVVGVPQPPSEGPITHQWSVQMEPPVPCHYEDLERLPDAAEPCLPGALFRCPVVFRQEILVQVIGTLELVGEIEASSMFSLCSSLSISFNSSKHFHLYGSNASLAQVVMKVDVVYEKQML
LFA-1, sequence (P05107 23-700, further chain): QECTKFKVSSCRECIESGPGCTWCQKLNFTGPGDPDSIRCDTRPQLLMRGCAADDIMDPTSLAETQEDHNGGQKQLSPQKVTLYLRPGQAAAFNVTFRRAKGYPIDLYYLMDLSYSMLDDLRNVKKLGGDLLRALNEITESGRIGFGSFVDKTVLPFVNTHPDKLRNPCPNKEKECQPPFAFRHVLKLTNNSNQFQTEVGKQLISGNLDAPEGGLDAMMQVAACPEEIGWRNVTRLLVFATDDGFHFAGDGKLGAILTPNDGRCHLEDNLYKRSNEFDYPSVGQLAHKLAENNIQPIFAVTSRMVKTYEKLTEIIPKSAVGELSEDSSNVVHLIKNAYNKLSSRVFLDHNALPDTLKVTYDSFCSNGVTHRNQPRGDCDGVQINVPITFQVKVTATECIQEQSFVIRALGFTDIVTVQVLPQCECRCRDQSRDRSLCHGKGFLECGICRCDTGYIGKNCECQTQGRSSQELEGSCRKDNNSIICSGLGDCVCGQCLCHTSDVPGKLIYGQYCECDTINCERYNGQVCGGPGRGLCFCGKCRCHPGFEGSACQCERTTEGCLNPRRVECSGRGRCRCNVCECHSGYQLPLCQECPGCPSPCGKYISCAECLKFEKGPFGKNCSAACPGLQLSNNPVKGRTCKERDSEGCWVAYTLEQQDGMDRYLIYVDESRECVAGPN

As for CD2 (from UniProt P06729), in data set [1], the Kd was 100000 nM. For CD28 (from UniProt P10747), the Kd in data set [2] is 4000 nM. Regarding CD40 (from UniProt P25942), the Kd in data set [3] is 200 nM. Turning to LFA-1 (from UniProt P20701), the Kd in data set [4] was 500 nM.
